Assay: soluble on expression in E. coli; label from the status in PepcDB or PDB records

| Sequence | soluble on expression in E. coli |
| --- | --- |
| MNIYTDKKVVAVGGGHGLGRMLAALKDFGSNATGIVATTDNGGSTGRIRHCQGGIAWGDTRNCINQLITEPSISSMMFEYRFKGTGELDGHNLGNLMLTALDNLSVRPLDAINLIRNMLKVDVNILPMSEHPSDLSALSVNGQWVTGETNVDEMETDLRRLDLSPEVPATKEAVTALAEADAIILGPGSFLTSIMPPLLLPELGKAIAANRKAKVIFVANLSPEYGPAGRMSMAQKLEWCERACQGRRIDVVLAEETDQKVLEQWNVVTEPLASTNRDWRHDRDKLKAAIENQLLTKLEHHHHHH | soluble |
| MSAITITEAAQAYLAELLEKQSTPGIGIRIFITQPGTQYAETCIAYCKPGEEKVEDTAIALKDFTAWIDAVSEPFLEDAVVDYATDRMGGQLTIKAPNAKVPMVNEDSPITERINYYLQTEINPGLASHGGQVSLVDVVEDNIAVLRFGGGCQGCGMVDMTLKDGVEKTLIERIPELKGVRDVTDHSNKENAYY | not soluble |
| MGSDKIHHHHHHMNKKGNTEEIIERLFSILSSEKDSIEFLKAVSEFSKFYEIDKKEQERRSSEAKSFVKMALQDFESVKILYQSKIYSLAVYHLQQAVEKYVKAYVLAFFGLSKKEMKGYVGHDSPKAFIRLLDRYKRSLELFLKSIQKIGGLDTQFLKISDEDIRKLVRIVNMSRKQIAEMDSNQIKGIINATIKIKIALENKEIKNQILGLLSKLKNEASEIKSSDPSEKFILEKLIDSVDRVLNNLETLLKLSSTFLVLYMLSIITYPHATFARYPNKTLPPEKYDENLGIVQYFNEIVKLLDEVANLLVYEI | not soluble |
| GANRTLIVTTILEEPYVMYRKSDKPLYGNDRFEGYCLDLLKELSNILGFLYDVKLVPDGKYGAQNDKGEWNGMVKELIDHRADLAVAPLTITYVREKVIDFSKPFMTLGISILYRKGTPIDSADDLAKQTKIEYGAVRDGSTMTFFKKSKISTYEKMWAFMSSRQQSALVKNSDEGIQRVLTTDYALLMESTSIEYVTQRNCNLTQIGGLIDSKGYGVGTPIGSPYRDKITIAILQLQEEGKLHMMKEKWWRGNGCPE | soluble |
| MGHHHHHHSHMETIGAKALEDFADNIKNDPDKEYNMPKDGTVHELTSNAILFLQQLLDFQETAGAMLASQETSSSATSYSSEFSKRLLSTYICKVLGNLQLNLLSKSKVYEDPALSAIFLHNNYNYILKSLEKSELIQLVAVTQKTAERSYREHIEQQIQTYQRSWLKVTDYIAEKNLPVFQPGVKLRDKERQIIKERFKGFNDGLEELCKIQKAWAIPDTEQRDRIRQAQKTIVKETYGAFLQKFGSVPFTKNPEKYIKYGVEQVGDMIDRLFDTSA | not soluble |
| MAHHHHHHMQMRWIVDAEERYRRSLTWKPAVGTIYDHKIVMKRGGSSHVQYRFDVDGKEYLGDRFRSGGVHKEEMVSNPALLGAGTQLVVYYNPSDPSESAIKLQTDRAAESAFLVGITISLLVAYRSVRCETILPNMFYSFLAVNRRLGGITGLREARTHSKQKMKYGKGTGAI | not soluble |
| MHTKGPTPQQHDGSALRIGIVHARWNETIIEPLLAGTKAKLLACGVKESNIVVQSVPGSWELPIAVQRLYSASQLQTPSSGPSLSAGDLLGSSTTDLTALPTTTASSTGPFDALIAIGVLIKGETMHFEYIADSVSHGLMRVQLDTGVPVIFGVLTVLTDDQAKARAGVIEGSHNHGEDWGLAAVEMGVRRRDWAAGKTE | soluble |
| MAHHHHHHMKNIFKYKNRLTFFRKGFSTTNKPKVEIKKTILYDSHKKNNAIFKIQHGFYLPDEYKDITLITSNLHTRTNCSLFDYTYRPILKISGEDKINFIEKYVGSDIKGLWENECRISLLLNDKGGIIDDIMIILREKYLLLYLNIQCKEKVYKYLKDKLLENGKLQVQIEEFTSHSSICIQGSKSSDVLKELIDYNNESVETNLDNCSFMSSTLTKINKIDNCILNRYTCTGEDGFDILIPNKYVNDLYNLILKNELVKPGGLAVQNTLRLESGFCEYGKDINEDITPIESNYKWSLGQRRLKELNFNGAHIIMDQIKNGTKIKRVGILINTNIVPKENTKIYSHENAEQIIGYITSSVFSPVLQKPICMGYVKSEYAHINNLIKVDCLNKLEIAQITKLPFVPLSIYKL | not soluble |
| MAELHIIGQIIGATGFPQNSLFCKWGVHTGGAWRLLSGLREGQTQVDMPQTGDMAYWSHPIDLHYTTKGLQGWPKLHLQVWHQDSFGRCQLYGYGYIHVPSSPGQHRLQCVTWRPLGSWQDQLSEMFVGGGPQLRSPDLIYSGADRYRLHTVGMGTVELELCIILRHFDRYGVES | not soluble |
| MCGIVGYIGYDNAKELLLKGLEKLEYRGYDSAGIAVVNDDNTTVFKEKGRIAELRKVADSSDFDGPVGIGHTRWATHGVPNHENSHPHQSSNGRFTLVHNGVIENYEELKGEYLQGVSFISETDTEVIVQLVEYFSNQGLSTEEAFTKVVSLLHGSYALGLLDAEDKDTIYVAKNKSPLLLGVGEGFNVIASDALAMLQVTSEYKEIHDHEIVIVKKDEVIIKDADGNVVERDSYIAEIDASDAEKGVYAHYMLKEIHEQPAVMRRIIQEYQDAEGNLKIDQDIINDVKEADRIYVIAAGTSYHAGLVGKEFLEKWAGVPTEVHVASEFVYNMPLLSEKPLFVYISQSGETADSRAVLVETNKLGHKSLTITNVAGSTLSREADHTLLLHAGPEIAVASTKAYTAQIAVLSILSQIVAKEHGREADIDLLRELAKVTTAIEAIVDDAPIMEQIATDFLETTRNAFFIGRTIDYNVSLEGALKLKEISYIQAEGFAGGELKHGTIALIEEGTPVVGLATQEKVNLSIRGNVKEVVARGAHPCIISMEGLEKEGDTYVIPHVHELLTPLVSVVALQLISYYAALHRDLDVDKPRNLAKSVTVE | not soluble |
| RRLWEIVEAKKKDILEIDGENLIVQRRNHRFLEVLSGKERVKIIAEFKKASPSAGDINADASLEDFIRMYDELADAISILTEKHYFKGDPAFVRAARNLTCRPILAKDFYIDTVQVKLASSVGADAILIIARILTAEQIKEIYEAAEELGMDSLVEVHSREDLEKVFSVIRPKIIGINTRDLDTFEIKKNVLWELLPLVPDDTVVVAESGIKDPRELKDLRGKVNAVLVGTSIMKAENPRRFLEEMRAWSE | soluble |
| MTTTIEVGMLGLGTVGSGVVERLTRSAAKIEQTQGIRLHLAAVAVNHLNAPRTVQLPIGTRLTDSLTNVVCDRKIQLVIEVMGTVATAKKAIVAALNQGKAVVTANKDLIATAGPELAALAKKQGCDLFYEASVAGGIPILRTLTDSYVTDNVQAVSGIINGTANYMLSAMATGQSYEQALATAQATGYAEADPTNDVAGIDAAYKLMILSRFAFGQELSLPQIAPTGITHLSASVCRLAAENGWQIKLLAQIQRHGSGLYCRVAPVAVPVDQPLSQINGVQNAVAVQSEAIGTSLYTGPGAGSTATANSVLNDVLVAAKHLINGYRMIRNQKRSVSLTVTRFDQLPQTYLGIGPVAPEAVKYYANEADFSVKTIADDCYQITGLSAVKRKKLRANLPLTLIPIAGTTDWKQVTENSITSPINVAI | not soluble |
| MGSDKIHHHHHHAGCAMIPPEPVVTGPLTAPPPPPPQPSARPNGSIYQPSAYGNYPLFEDRRPRNVGDIVTIVLEEKTNAAKGVATNTSRDGSATLGVAAAPRFMDGIINDKLDTDISGGNTANGTGKSSANNTFTGTITTTVIGVLPNGNLQIAGEKQIAINRGSEYVRFSGVVDPRSITGSNTVSSTRVADARIEYRSKGVMDEVQTMGWLQRFFLIASPF | not soluble |
| GPLHMVKVALAGCPNVGKTSLFNALTGTKQYVANWPGVTVEKKEGVFTYKGYTINLIDLPGTYSLGYSSIDEKIARDYLLKGDADLVILVADSVNPEQSLYLLLEILEMEKKVILAMTAIDEAKKTGMKIDRYELQKHLGIPVVFTSSVTGEGLEELKEKIVEYAQKNTILHRMILDYGEKVESEIKKVENFLRDKKLRINPRYFALKYLSGDPEFYSEGVKLGLPELSEEERIGYRLLIAKRKREYVENVVKEAFAD | soluble |
| MSLRFVFDIDGTLCFDGRLIDQTIIDTLLQLQHDGHELIFASARPIRDLLPVLPSVFHQHTLIGANGAMISQQSKISVIKPIHTDTYHHILKIIQKYELDYIIDDDWNYAAQLDAENAIFERLDPHKLASCIDVANIDTPIKIILLNIDPAQITTILDELNKYHQELEMIHHSNEYNIDITAQNINKYTALQYIFDADVKYIAFGNDHNDIFMLQHASSGYIIGPSEAYTHAILKLDKIKHINNNTQAICKVLKSYKEGHHHHHH | soluble |
| MGSDKIHHHHHHSDEKYPMPTSIDQNSLSAEAKAGAIKLKWTVPADSNYYYVKVTYTLPEDGKKCMRLASVNSDTMLVDNLLHRYGDINFTLQPCNRAGEASQSCSIMAQALPALKQIKTDRNPITLSAKQLYTDDQESSEGPIANLVDGRNDTYFHMSWSSPTPFPHYIVVDLGEENALSTFLFSYVCRDNNNKDNPKEMDILGSNTFDGKNYDESQTTLLASLSNLPNTKAASYESDIIKAGASYRYLWFKVKSSTSGSNWIALAELGLSKVIVKTYDPETGETTIE | not soluble |
| MACCYNSPRRLEKSFVLDGVAVSTMAQAYSIMRPKLWSAIPPYNPQLDHHSRRYFRSRVVPPILRKTDQDHGGTGRDGWIVDYFHIFGQGQRYLNRRNWAGAGHSLQQVSGHDYYNSNPKAITTGLNGRFGYRRNTPALRQHTSVFGEVTPFPISEDIASQGLTCVFKTDV | not soluble |
| MSLDLKLGGQVILVVGGAGTIGSEVVKLLTEEGATAVAASRSTPLSIDASDEASVRAGIDQVIAEHGRLDGLVVSSAPAAQTLSAETADDPDTVLAAIEGKAITFMKAATVALEKMREAGHGRIVALSGMNSYKTLSTTASARNAALNVVVKNLADRHAGTGITVNAISPGFVVAEPDAEVNRANGDTTVEEVAEAIAFLLSPRTASISGEIISVGHKAKGEGHHHHHH | not soluble |
| MSQGLPLREDVPVSETWDLVDLFKDDQQYYESIDALVQQANQFHHTYATTLNSIEQINTALAELENILIALDRLSNYAELRLSVDTSNIEAQVLSAKLSTTYGKIVSQLSFVESEILELPEEILQQLEESCPYQHYIKQLIKQKPFQLSASVEQVLATLSPTLNSPYDLYGTTKMLDITFDSFEHDGTTYPVDYATFENDYEDNKDPEFRRKSFKSFSDGIRKYQHTTAATYNMQVQQEKIEADLRGFESVIDYLLHSQEVTRDMFDRQIDMIMRDLAPVMQKYAKLLQRIHGLDNMRFEDLKISVDPDYEPEISIEDSKNYIFGALSVLGDDYTNMLREAYDQRWIDFAQNKGKDTGAFCASPYFTHSYVFISWTGKMAEAFVLAHELGHAGHFTLAQKHQPYLESEASMYFVEAPSTMNEMLMANYLFNTSDNPRFKRWIIGSILSRTYYHNMVTHLLEAAYQREVYHKVDQGESLNAPTLNEIMLNVYKQFFGDAVDMTEGAELTWMRQPHYYMGLYSYTYSAGLTIGTVVSQKIKNEGQPAVDAWLETLKKGGSVSPVELANIAGVDITTEQPLKSTIQYISDLVDEVEKLTDEIEQANN | soluble |
| MGSSHHHHHHGKTIFVIVPTNEEQVAFLEALAKQDELNFDWQNPPTEPGQPVVILIPSDMVEWFLEMLKAKGIPFTVYVEEGGSENLYFQGGGGGGDRMRQGWLRSSAALLERVHGHLKDQDRIFTNLYNDFGTGIDAAERRGDWYRTKDILLKGHDWVINEIKASGLRGRGGAGFPSGLKWSFMPKKKQDDRPSYIVVNCDESEPGTCKDREIMRHEPHKVVEGALLAGFAMRARYGYIYIRGEFYNEWRSVEKAIHEAYEKGYLGKNACGSGWDFDLYTYRGAGAYICGEETAMIASIEGGQGKPRLKPPFPANVGLYGCPTTVTNCETVAVSPTIIRRGPQWFAQFGRKGNAGTKLFCISGHVNRPCTVEEEMSMPLRELLERHAGGVRGGWDNLLCVIPGGSSCPLIPKHICDDILMDYDALKEAQTGLGTAAVIVMDKSTDVINAIERLSQFYMHESCGQCTPCREGSPWLDKMMKRFVNGNAKKEEIYTLWDVSKQMEGRSICALGTAAAWPVQGLIRHFKPLMEERIERFWEANPHWGQPGSPWRRWKTHRYYTMQKGDRLNWDGKIVRNWN | not soluble |

From the DeepSol protein solubility set
